From the Immune Epitope Database (IEDB)
Each block holds one sequence with its values, some of them ahead of it.

Key:
HLA-C*07:02 = assay: IEDB peptide-MHC binding, purified MHC/direct/fluorescence; filed as Kd, often an IC50 or EC50 that approximates it; ≥ and ≤ were set here for values at or beyond the usual limits of such assays
HLA-C*14:02 = assay: as above
HLA-C*15:02 = assay: as above
HLA-A*02:01 [1] = assay: IEDB peptide-MHC binding, purified MHC/competitive/radioactivity; ≥ and ≤ were set here for values at or beyond the usual limits of such assays
HLA-B*48:01 = assay: IEDB peptide-MHC binding, purified MHC/competitive/fluorescence; filed as Kd, often an IC50 or EC50 that approximates it; ≥ and ≤ were set here for values at or beyond the usual limits of such assays; conditions: source organism: Giardia lamblia ATCC 50803
HLA-B*07:02 = assay: IEDB peptide-MHC binding, purified MHC/direct/fluorescence; filed as Kd, often an IC50 or EC50 that approximates it; ≥ and ≤ were set here for values at or beyond the usual limits of such assays
HLA-B*08:01 = assay: as above
HLA-A*03:01 = assay: as above
HLA-A*69:01 = assay: as above
HLA-A*02:01 [2] = assay: as above
HLA-A*26:01 = assay: as above
HLA-B*40:01 = assay: as above
HLA-B*15:01 = assay: as above
HLA-A*11:01 = assay: as above
HLA-B*58:01 = assay: as above
HLA-B*27:05 = assay: as above
HLA-A*01:01 = assay: as above
HLA-A*24:03 = assay: as above
HLA-B*44:02 = assay: as above
HLA-A*31:01 = assay: as above
HLA-A*30:01 = assay: as above
HLA-A*02:11 = assay: as above
HLA-A*02:19 = assay: as above
HLA-A*02:03 = assay: as above
HLA-B*57:01 = assay: as above
HLA-A*02:16 = assay: as above
HLA-B*46:01 = assay: as above
HLA-A*29:02 = assay: as above
HLA-B*39:01 = assay: as above
HLA-B*18:01 = assay: as above
HLA-B*15:17 = assay: as above
HLA-A*02:12 = assay: as above
HLA-B*27:03 = assay: as above
HLA-B*51:01 [3] = assay: as above
HLA-B*83:01 = assay: IEDB peptide-MHC binding, purified MHC/competitive/fluorescence; filed as Kd, often an IC50 or EC50 that approximates it; ≥ and ≤ were set here for values at or beyond the usual limits of such assays; conditions: source organism: Encephalitozoon cuniculi GB-M1
HLA-B*15:42 = assay: as above; conditions: source organism: Encephalitozoon cuniculi GB-M1
HLA-B*45:06 = assay: as above; conditions: source organism: Encephalitozoon cuniculi GB-M1
HLA-B*51:01 [4] = assay: as above; conditions: source organism: Shigella boydii Sb227
HLA-A*68:02 = assay: IEDB peptide-MHC binding, purified MHC/direct/fluorescence; filed as Kd, often an IC50 or EC50 that approximates it; ≥ and ≤ were set here for values at or beyond the usual limits of such assays
HLA-C*06:02 = assay: as above; conditions: source organism: Mus musculus
[5] = source organism: Salmonella enterica subsp. enterica serovar Paratyphi B str. SPB7
[6] = source organism: Vaccinia virus Copenhagen
[7] = source organism: Yersinia pestis
[8] = source organism: Brucella suis 1330
[9] = source organism: Encephalitozoon cuniculi GB-M1
[10] = source organism: Salmonella enterica
[11] = source organism: Salmonella enterica subsp. enterica serovar Choleraesuis str. SC-B67
[12] = source organism: Brucella abortus
[13] = source organism: Brucella melitensis
[14] = source organism: Salmonella enterica subsp. enterica serovar Virchow
[15] = source organism: Vibrio parahaemolyticus AQ3810

Sequence: SVFTGLLPF
Kd (HLA-C*07:02; [5]): 0.507 µM
Kd (HLA-C*14:02; [5]): 0.56 µM
Kd (HLA-C*15:02; [5]): 12.3 µM

Sequence: RYWYFAAEL
Kd (HLA-C*07:02; [6]): 1.01 µM
Kd (HLA-C*14:02; [6]): 0.015 µM

Sequence: ALYIPPYEL
IC50 (HLA-A*02:01 [1]; source organism: Rhinovirus A): 0.586 µM

Sequence: GQPHSLASL
Kd (HLA-B*48:01): 0.149 µM

Sequence: VPRVHNQPQ
Kd (HLA-B*07:02; [7]): 0.0437 µM
Kd (HLA-B*08:01; [7]): 5.69 µM
Kd (HLA-A*03:01; [7]): ≥ 20 µM
Kd (HLA-A*69:01; [7]): ≥ 20 µM
Kd (HLA-A*02:01 [2]; [7]): ≥ 20 µM
Kd (HLA-A*26:01; [7]): ≥ 20 µM
Kd (HLA-B*40:01; [7]): ≥ 20 µM
Kd (HLA-B*15:01; [7]): ≥ 20 µM
Kd (HLA-A*11:01; [7]): ≥ 20 µM
Kd (HLA-B*58:01; [7]): ≥ 20 µM
Kd (HLA-B*27:05; [7]): ≥ 20 µM
Kd (HLA-A*01:01; [7]): ≥ 20 µM
Kd (HLA-A*24:03; [7]): ≥ 20 µM
Kd (HLA-B*44:02; [7]): ≥ 20 µM
Kd (HLA-A*31:01; [7]): ≥ 20 µM
Kd (HLA-A*30:01; [7]): ≥ 20 µM

IC50 (HLA-A*02:01 [1]; source organism: Homo sapiens): 0.0132 µM
Sequence: VLYRYGSFSV

Sequence: SLYNLVAVL
IC50 (HLA-A*02:01 [1]; source organism: Human immunodeficiency virus 1): 0.027 µM

Sequence: QAHMGIAGL
Kd (HLA-A*02:11; [8]): ≥ 20 µM
Kd (HLA-A*03:01; [8]): ≥ 20 µM
Kd (HLA-A*02:19; [8]): ≥ 20 µM
Kd (HLA-A*02:03; [8]): ≥ 20 µM
Kd (HLA-B*57:01; [8]): ≥ 20 µM
Kd (HLA-A*02:16; [8]): ≥ 20 µM
Kd (HLA-A*02:01 [2]; [8]): ≥ 20 µM
Kd (HLA-B*46:01; [8]): ≥ 20 µM
Kd (HLA-A*26:01; [8]): ≥ 20 µM
Kd (HLA-A*29:02; [8]): ≥ 20 µM
Kd (HLA-B*39:01; [8]): ≥ 20 µM
Kd (HLA-B*18:01; [8]): ≥ 20 µM
Kd (HLA-B*15:01; [8]): ≥ 20 µM
Kd (HLA-B*15:17; [8]): 0.003 µM
Kd (HLA-A*24:03; [8]): ≥ 20 µM
Kd (HLA-A*02:12; [8]): ≥ 20 µM
Kd (HLA-B*27:03; [8]): ≥ 20 µM

IC50 (HLA-A*02:01 [1]; source organism: Homo sapiens): 1.77 µM
Sequence: RQASIELPSM

Kd (HLA-A*02:11; [9]): ≥ 20 µM
Kd (HLA-A*03:01; [9]): ≥ 20 µM
Kd (HLA-A*02:19; [9]): ≥ 20 µM
Kd (HLA-B*51:01 [3]; [9]): ≥ 20 µM
Kd (HLA-A*02:03; [9]): ≥ 20 µM
Kd (HLA-B*57:01; [9]): ≥ 20 µM
Kd (HLA-A*02:16; [9]): ≥ 20 µM
Kd (HLA-A*02:01 [2]; [9]): ≥ 20 µM
Kd (HLA-A*26:01; [9]): ≥ 20 µM
Kd (HLA-A*29:02; [9]): ≥ 20 µM
Kd (HLA-B*39:01; [9]): ≥ 20 µM
Kd (HLA-B*18:01; [9]): ≥ 20 µM
Kd (HLA-B*15:17; [9]): ≤ 0.001 µM
Kd (HLA-A*24:03; [9]): ≥ 20 µM
Kd (HLA-A*02:12; [9]): ≥ 20 µM
Kd (HLA-B*27:03; [9]): ≥ 20 µM
Kd (HLA-B*83:01): ≥ 5 µM
Kd (HLA-B*15:42): ≥ 5 µM
Kd (HLA-B*45:06): ≥ 5 µM
Sequence: FSFFMNENF

Sequence: RTAKVRAFH
Kd (HLA-A*03:01; [10]): 0.241 µM
Kd (HLA-A*11:01; [11]): 0.069 µM
Kd (HLA-A*31:01; [10]): 0.15 µM
Kd (HLA-A*30:01; [11]): 0.032 µM

Sequence: EKPPVRPIF
Kd (HLA-B*07:02; [12]): ≥ 20 µM
Kd (HLA-B*08:01; [13]): 5.61 µM
Kd (HLA-A*03:01; [12]): ≥ 20 µM
Kd (HLA-A*69:01; [12]): ≥ 20 µM
Kd (HLA-A*02:01 [2]; [12]): ≥ 20 µM
Kd (HLA-A*26:01; [12]): ≥ 20 µM
Kd (HLA-B*40:01; [12]): ≥ 20 µM
Kd (HLA-B*15:01; [12]): ≥ 20 µM
Kd (HLA-B*58:01; [12]): ≥ 20 µM
Kd (HLA-B*27:05; [12]): ≥ 20 µM
Kd (HLA-A*01:01; [12]): ≥ 20 µM
Kd (HLA-B*44:02; [12]): ≥ 20 µM
Kd (HLA-A*31:01; [12]): ≥ 20 µM
Kd (HLA-A*30:01; [13]): 8.74 µM

Sequence: FPAWFAWIF
Kd (HLA-C*07:02; source organism: Shigella boydii Sb227): ≥ 20 µM
Kd (HLA-B*51:01 [4]): ≥ 20 µM

Sequence: CTWPEASRY
Kd (HLA-A*02:11; [14]): ≥ 20 µM
Kd (HLA-A*03:01; [14]): ≥ 20 µM
Kd (HLA-A*02:19; [14]): ≥ 20 µM
Kd (HLA-B*51:01 [3]; [14]): ≥ 20 µM
Kd (HLA-A*02:03; [14]): ≥ 20 µM
Kd (HLA-A*02:16; [14]): ≥ 20 µM
Kd (HLA-A*68:02; [14]): ≥ 20 µM
Kd (HLA-A*69:01; [14]): ≥ 20 µM
Kd (HLA-A*02:01 [2]; [14]): ≥ 20 µM
Kd (HLA-B*46:01; [14]): ≥ 20 µM
Kd (HLA-B*39:01; [14]): ≥ 20 µM
Kd (HLA-B*15:17; [14]): 0.026 µM
Kd (HLA-A*24:03; [14]): ≥ 20 µM
Kd (HLA-A*02:12; [14]): ≥ 20 µM
Kd (HLA-B*27:03; [14]): ≥ 20 µM

Sequence: RLDKPLWLH
Kd (HLA-A*02:19; [15]): ≥ 20 µM
Kd (HLA-B*51:01 [3]; [15]): ≥ 20 µM
Kd (HLA-A*02:03; [15]): ≥ 20 µM
Kd (HLA-B*57:01; [15]): ≥ 20 µM
Kd (HLA-A*02:16; [15]): ≥ 20 µM
Kd (HLA-A*68:02; [15]): ≥ 20 µM
Kd (HLA-A*69:01; [15]): ≥ 20 µM
Kd (HLA-A*02:01 [2]; [15]): ≥ 20 µM
Kd (HLA-B*46:01; [15]): ≥ 20 µM
Kd (HLA-A*26:01; [15]): ≥ 20 µM
Kd (HLA-B*39:01; [15]): ≥ 20 µM
Kd (HLA-B*18:01; [15]): ≥ 20 µM
Kd (HLA-B*15:01; [15]): ≥ 20 µM
Kd (HLA-A*02:12; [15]): ≥ 20 µM
Kd (HLA-B*27:03; [15]): ≥ 20 µM

Kd (HLA-C*06:02): ≥ 20 µM
Kd (HLA-C*15:02; source organism: Mus musculus): ≥ 20 µM
Sequence: LWFRNHFVF

Sequence: FLCKQYLNL
IC50 (HLA-A*02:01 [1]; source organism: Hepatitis B virus): 0.029 µM
